Reference: patent US20220251198A1

How the values were obtained:
[1] = molecular target: human FcγRI extracellular domain (human) (UniProt P12314); experiment: SPR (Biacore), FcγR ECD analyte; N=1
[2] = molecular target: human FcγRIIIA_158V extracellular domain (human) (UniProt P08637); experiment: SPR (Biacore), FcγR ECD analyte; N=1
[3] = molecular target: human FcγRIIb extracellular domain (human) (UniProt P31994); experiment: SPR (Biacore), FcγR ECD analyte; N=1
[4] = molecular target: human FcγRIIIA_158F extracellular domain (human) (UniProt P08637); experiment: SPR (Biacore), FcγR ECD analyte; N=1
human FcγRIIIA_158F extracellular domain (human), sequence (P08637 17-208): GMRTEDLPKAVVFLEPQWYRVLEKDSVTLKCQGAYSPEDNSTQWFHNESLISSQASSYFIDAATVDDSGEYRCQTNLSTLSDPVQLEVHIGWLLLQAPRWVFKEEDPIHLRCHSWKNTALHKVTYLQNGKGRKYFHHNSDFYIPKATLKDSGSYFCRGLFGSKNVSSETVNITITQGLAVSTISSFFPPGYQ

[5] = molecular target: human FcγRIIA_131H extracellular domain (human) (UniProt P12318); experiment: SPR (Biacore), FcγR ECD analyte; N=1
human FcγRIIA_131H extracellular domain (human), sequence (P12318 34-217): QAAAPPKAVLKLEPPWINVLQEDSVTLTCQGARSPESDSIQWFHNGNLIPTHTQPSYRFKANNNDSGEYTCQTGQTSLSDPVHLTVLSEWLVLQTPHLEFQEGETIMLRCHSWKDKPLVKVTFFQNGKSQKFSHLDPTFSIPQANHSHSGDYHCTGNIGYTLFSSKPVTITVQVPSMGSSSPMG

[6] = molecular target: human FcγRIIA_131R extracellular domain (human) (UniProt P12318); experiment: SPR (Biacore), FcγR ECD analyte; N=1
human FcγRIIA_131R extracellular domain (human), sequence (P12318 34-217 H167R): as the sequence (P12318 34-217) above, with H134R counted along it

[7] = molecular target: human FcγRIIA_131R extracellular domain (human) (UniProt P12318); experiment: SPR at 25 C, antibody captured on Protein A, FcγR ECD analyte, steady state
[8] = molecular target: human FcγRIIIA_158F extracellular domain (human) (UniProt P08637); experiment: as above
[9] = molecular target: human FcγRIIA_131H extracellular domain (human) (UniProt P12318); experiment: as above
[10] = molecular target: human FcγRIIIA_158V extracellular domain (human) (UniProt P08637); experiment: as above

human FcγRI extracellular domain (human), sequence (P12314 16-292): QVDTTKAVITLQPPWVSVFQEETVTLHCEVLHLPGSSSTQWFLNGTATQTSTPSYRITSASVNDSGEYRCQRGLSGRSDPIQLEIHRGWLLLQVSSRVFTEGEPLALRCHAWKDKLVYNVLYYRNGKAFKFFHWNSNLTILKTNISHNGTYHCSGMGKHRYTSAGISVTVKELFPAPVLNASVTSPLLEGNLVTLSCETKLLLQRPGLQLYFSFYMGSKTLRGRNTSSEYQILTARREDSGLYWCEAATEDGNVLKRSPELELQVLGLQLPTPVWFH
human FcγRIIIA_158V extracellular domain (human), sequence (P08637 17-208 F176V): as the sequence (P08637 17-208) above, with F160V counted along it
human FcγRIIb extracellular domain (human), sequence (P31994 43-217): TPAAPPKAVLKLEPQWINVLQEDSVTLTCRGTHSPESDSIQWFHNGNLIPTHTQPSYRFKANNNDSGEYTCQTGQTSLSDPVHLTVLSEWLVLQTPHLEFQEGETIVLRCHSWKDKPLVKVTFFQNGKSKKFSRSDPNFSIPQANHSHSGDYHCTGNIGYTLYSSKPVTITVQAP

Row | Substance | Kd [1] | Kd [2] | Kd [3] | Kd [4] | Kd [5] | Kd [6] | Kd [7] | Kd [8] | Kd [9] | Kd [10]
1 | CD200R antibody IgG1 A330S + P331S + S267G | 511 pM | 2.48 µM | 4.3 µM | 9.8 µM | 5.1 µM |  |  |  |  | 
2 | CD200R antibody IgG1 A330S + S267G | 168 pM | 1.66 µM | 4.99 µM | 10.8 µM | 3.31 µM | 0.82 µM |  |  |  | 
3 | CD200R antibody IgG1 K322A | 30.5 pM |  | 3.41 µM | 2.58 µM | 0.98 µM | 0.82 µM |  |  |  | 
4 | CD200R antibody IgG1 K322A + S267G | 70.5 pM | 1.65 µM | 4.43 µM | 9.99 µM | 5.02 µM | 0.66 µM |  |  |  | 
5 | CD200R antibody IgG1 N325S + L328F | 68.7 pM | 7.35 µM | 0.275 µM |  | 2.64 µM | 0.06 µM |  |  |  | 
6 | CD200R antibody IgG1 P331S | 54.3 pM | 0.45 µM | 4.64 µM | 3.11 µM | 1.15 µM | 1.14 µM |  |  |  | 
7 | CD200R antibody IgG1 P331S + S267G | 142 pM | 2.08 µM | 4.38 µM |  | 5.2 µM | 0.77 µM |  |  |  | 
8 | CD200R antibody IgG1 S267G | 131 pM | 0.73 µM | 3.41 µM | 4.5 µM | 3.13 µM | 0.53 µM |  |  |  | 
9 | Hu IgG1 (antibody) | 55.2 pM |  | 4.2 µM | 2.59 µM | 0.71 µM | 1.03 µM |  |  |  | 
10 | Human IgG4P control antibody | 385 pM | 5.47 µM | 3.31 µM |  | 5.12 µM | 2.89 µM |  |  |  | 
11 | IgG1 Control Antibody |  |  |  |  |  |  | 0.6 µM | 1 µM | 0.5 µM | 
12 | IgG4 PAA Control Antibody |  |  |  |  |  |  |  |  |  | 8.9 µM
